Source: article PMC4989918

Experiments:
[1] = target: Mb(BgaD_L19) displayed on yeast; experiment: flow cytometry on cells
[2] = target: Mb(BgaD_L23) displayed on yeast; experiment: flow cytometry on cells
[3] = target: Mb(BgaD_L14), purified monobody; experiment: bead-based binding assay read by flow cytometry

- Kd [1]: 600 nM
- Kd [2]: 12 nM
- Kd [3]: 31 nM
B1: BgaD-D, β-galactosidase from Bacillus circulans ATCC 31382 (residues 36–847), biotinylated (enzyme)
chain: GNSVSYDGERRVNFNENWRFQRETNGSIAGAQNPGFDDSSWRKLNLPHDWSIELDFNKNSLATHEGGYLDGGIGWYRKTFTIPESMKGKRISLDFDGVYMNSTTYLNGEVLGTYPFGYNAFSYDISDKLYKDGRANVLVVKVNNTQPSSRWYSGSGIYRNVYLTVTDPIHVARYGTFVTTPNLEKSIKEDRADVNIKTKISNDAAEAKQVKIKSTIYDGAGNTVQTVETEEKTAAAGTVTPFEQNTVIKQPKLWSIDKPYRYNLVTEVIVGGQTVDTYETKFGVRYFKFDENEGFSLNGEYMKLHGVSMHHDLGALGAATNARGVERQMQIMKDMGVNAIRVTHNPASPELLEAANKLGLFIIEEAFDSWAQSKKPYDYGRFFNAWAEHDIKEMVDRGKNEPAIIMWSIGNEIYDTTNAAGVETARNLVGWVKEIDTTRPTTIGEDKTRGDKVNVTPINSYIKEIFNIVDVVGLNYSENNYDGYHKQNPSWKLYGSETSSATRSRGVYTHPYQYNQSTKYADLQQSSYDNDYVGWGRTAEDAWKYDRDLKHIAGQFIWTGFDYIGEPTPYYNSYPAKSSYFGAVDTAGFPKDIFYYYQSQWKKEPMVHLLPHWNWKEGEKVRVLAYTNASKVELVLNGESLGEKNYDNKQTSWGAPYKETKDGKTYLEWAVPFKPGKLEAVAKDENGKVIARDQVVTAGEPASVRLTADRKVVKADGTDLSFITADIVDSKGIVVPDADHLITFNVTGQGELAGVDNGNASSVERYKDNKRKAFSGKALAIVQSSKLSGKITVHASVAGLSSDSTSVFTVTP
modifications: biotin on the biotin-acceptor tag (in vivo biotinylation)
